Source: the supplement of paper PMC12764529
± gives the half width of the 95% confidence interval.

Tests used:
[1] = folding stability dG unfold from trypsin proteolysis; higher = more stable
Method in brief: (§1)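 K50 was inferred by Bayesian fitting of sequencing counts obtained after protease digestion of designed mini-proteins. Unfolding free energy was derived by comparison with a sequence-predicted unfolded-state K50 and a shared folded-state K50, for each protease or both combined. The mini-proteins were under 80 residues, had no cysteine, were carried in a PA-tagged cDNA display construct, and were kept only if AlphaFold2 dimer inter-PAE exceeded 15.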

[2] = folding stability dG unfold from chymotrypsin proteolysis; higher = more stable
Method in brief: as §1

[3] = folding stability dG unfold (combined trypsin and chymotrypsin); higher = more stable
Method in brief: as §1

## SAGGKVVTVEVELENGVRVTVEFVEEDGYLALKVTVEVRLPAPPVTTADGREKEVTRRLELVILLPKESAGG [r13_780_TrROS_Hall]
[1]
  folding stability dG unfold: 2.72 ± 0.14 kcal/mol
[2]
  folding stability dG unfold: 3.17 ± 0.15 kcal/mol
[3]
  folding stability dG unfold: 3.05 ± 0.13 kcal/mol

## SAGGIRIKPGQILVIDIERPTGNERKIIIPMDDPEEVIEQLGFPPENFRIKDIEVVPMPPEQAKDFLESAGG [r13_850_TrROS]
[1]
  folding stability dG unfold: -0.0896 ± 0.28 kcal/mol
[2]
  folding stability dG unfold: 0.585 ± 0.1 kcal/mol
[3]
  folding stability dG unfold: 0.321 ± 0.17 kcal/mol

## SAGGSAGGSAMEIEIEIEIPVPVPGGVPSPENPEVAEERAEEIKEKYAKEGLKVKVKITVVSAGGSAGGSAG [r3_258_JUSTAS]
[1]
  folding stability dG unfold: 1.22 ± 0.21 kcal/mol
[2]
  folding stability dG unfold: 1.13 ± 0.061 kcal/mol
[3]
  folding stability dG unfold: 1.07 ± 0.3 kcal/mol

## SAGGMKPGEKVLVKITLKKEVFKNENGEEVKVEEKEILIELEVDSLEEALEALKKLLPPGAEIEVLPSAGGS [r16_282_TrROS_Hall]
[1]
  folding stability dG unfold: 3.52 ± 0.13 kcal/mol
[2]
  folding stability dG unfold: 3.1 ± 0.047 kcal/mol
[3]
  folding stability dG unfold: 3.24 ± 0.13 kcal/mol

## SAGGSAMIKIKLPNGEVAEIELSPDGKKVLIRYKDGSIEEIEIKDGKITKIKPLPNAPPNAEIVEVSAGGSA [r15_709_TrROS_Hall]
[1]
  folding stability dG unfold: 1.92 ± 0.029 kcal/mol
[2]
  folding stability dG unfold: 2.72 ± 0.041 kcal/mol
[3]
  folding stability dG unfold: 2.47 ± 0.077 kcal/mol

## SAGGSAGGSAGKAESGDNAITLTLPGGHKVTIPNLPPNEPVWVKLNNRWVKIGDLKVNPKSAGGSAGGSAGG [r11_16_TrMRF]
[1]
  folding stability dG unfold: -0.131 ± 0.16 kcal/mol
[2]
  folding stability dG unfold: 0.227 ± 0.25 kcal/mol
[3]
  folding stability dG unfold: 0.196 ± 0.18 kcal/mol

## SAGGSAGGKLENLPENVTEVRIEKNENGEYTIYVRNKETNEYVKLKVEKKDGEWKIVEKEVFPKSAGGSAGG [r6_937_TrROS_Hall]
[1]
  folding stability dG unfold: 2.09 ± 0.12 kcal/mol
[2]
  folding stability dG unfold: 3.02 ± 0.047 kcal/mol
[3]
  folding stability dG unfold: 2.74 ± 0.26 kcal/mol

## SAGGSAGGSAGGMLSTNVTRTITLTYFDPNGSKPIETQTVTVTTFVEIFQEPVGNWTAASAGGSAGGSAGGS [r10_50_JUSTAS]
[1]
  folding stability dG unfold: 0.789 ± 0.08 kcal/mol
[2]
  folding stability dG unfold: 0.759 ± 0.21 kcal/mol
[3]
  folding stability dG unfold: 0.786 ± 0.15 kcal/mol

## SAGGTIIINFTWSDIKDILDYLKDNKDWKITIWMGNKPVEYPLDDLEEILQNIPMPPGQPFWIEITPSAGGS [r16_377_TrROS]
[1]
  folding stability dG unfold: 3.38 ± 0.26 kcal/mol
[2]
  folding stability dG unfold: 4.32 ± 0.14 kcal/mol
[3]
  folding stability dG unfold: 4.36 ± 0.17 kcal/mol

## SAGGGMSTYTITINIVIDPKEKKVPKPPLKDPFKLPPLKTIPITITAETSDPAVAAALEKAVKEALGLSAGG [r13_35_JUSTAS]
[1]
  folding stability dG unfold: 1.73 ± 0.038 kcal/mol
[2]
  folding stability dG unfold: 2.19 ± 0.054 kcal/mol
[3]
  folding stability dG unfold: 2 ± 0.069 kcal/mol

## SAGGIVEEAIKKLFESGIPLSEEEIKEIIEKAIKEENEKKGKKIEKIEIGEIKFNPETGYAPIKIKASAGGS [r16_365_TrMRF]
[1]
  folding stability dG unfold: -0.383 ± 0.48 kcal/mol
[2]
  folding stability dG unfold: 1.44 ± 0.13 kcal/mol
[3]
  folding stability dG unfold: 0.856 ± 0.83 kcal/mol

## SDNFQPDMTFPVTEIGDDKVTMKYNGKPYYIPTSKITSPNVTVKITDGTVSEVSSPSPSPLPPENIKKLSSA [r9_842_JUSTAS]
[1]
  folding stability dG unfold: -0.705 ± 0.24 kcal/mol
[2]
  folding stability dG unfold: -0.293 ± 0.35 kcal/mol
[3]
  folding stability dG unfold: -0.263 ± 0.42 kcal/mol

## SAGGSAGGSPDEGDPVKITILIMIMIPNENGEPYFIFIRVEITIDPKDNKIQITKIDEIYIFPSAGGSAGGS [r12_358_TrROS]
[1]
  folding stability dG unfold: 3.74 ± 0.16 kcal/mol
[2]
  folding stability dG unfold: 4.66 ± 0.1 kcal/mol
[3]
  folding stability dG unfold: 4.42 ± 0.12 kcal/mol

## SAGGSAMKPGEPVEFNIMIKIRDPNGKPVGEIDIKVEYPKGQSESQMFDRARNEINNLAPEGHLEISAGGSA [r15_310_TrROS]
[1]
  folding stability dG unfold: 0.0892 ± 0.087 kcal/mol
[2]
  folding stability dG unfold: 0.486 ± 0.21 kcal/mol
[3]
  folding stability dG unfold: 0.396 ± 0.14 kcal/mol

## SAGGSAGGSAGGMKIPPSLLTEVKESIVPTPEGSTKITTVTAKVPGTGEVVTYTLTTPVASAGGSAGGSAGG [r7_348_JUSTAS]
[1]
  folding stability dG unfold: 0.0354 ± 0.032 kcal/mol
[2]
  folding stability dG unfold: -0.744 ± 0.31 kcal/mol
[3]
  folding stability dG unfold: -0.242 ± 0.11 kcal/mol

## SAGEVKIEISVEKVGGKYIVRIKVTVDGKEYEYEFPAGKSVEELAKELEKKLNLKVKKIEVEVRKLPPKSAG [r5_181_TrROS_Hall]
[1]
  folding stability dG unfold: 2.88 ± 0.11 kcal/mol
[2]
  folding stability dG unfold: 3.47 ± 0.12 kcal/mol
[3]
  folding stability dG unfold: 3.28 ± 0.25 kcal/mol

## SAGMVVTINFSIPETGETITITIPVPEDDPVVKALGAPSAEDIAAYLAPQLKEKGINVQNPTVTVTEPSSAG [r5_722_JUSTAS]
[1]
  folding stability dG unfold: 0.24 ± 0.043 kcal/mol
[2]
  folding stability dG unfold: 0.928 ± 0.053 kcal/mol
[3]
  folding stability dG unfold: 0.705 ± 0.051 kcal/mol

## SAGVEELFRRLGAEVSVTRRPDGSLVVTFRLPDGRTIVVFVTPDGVRVVVVDPSGERRTLSLEDLKRLASAG [r14_578_TrMRF]
[1]
  folding stability dG unfold: 3.38 ± 0.059 kcal/mol
[2]
  folding stability dG unfold: 4.098 ± 0.035 kcal/mol
[3]
  folding stability dG unfold: 3.83 ± 0.058 kcal/mol

## SAGRKIPIMFTWPNGDPERMEEIAIEFANYLQPNGLPNVTIKIERKPVKDPENGKRRYVYMVTIEVQPPSAG [r5_49_TrROS]
[1]
  folding stability dG unfold: 1.92 ± 0.043 kcal/mol
[2]
  folding stability dG unfold: 2.89 ± 0.089 kcal/mol
[3]
  folding stability dG unfold: 2.44 ± 0.2 kcal/mol

## SAGGSAMTPEELANVTVEVVTTTEPASPDLTLPDGTRLPPSTTVTTTTEVVVLPGGELLGTRVTVASAGGSA [r15_12_JUSTAS]
[1]
  folding stability dG unfold: -0.375 ± 0.051 kcal/mol
[2]
  folding stability dG unfold: 1.03 ± 0.023 kcal/mol
[3]
  folding stability dG unfold: 0.644 ± 0.043 kcal/mol

## SAGGSMNPSVSVEEEVFPDGVTRLKLTFSDGKELEAEVTRHADGNVQVTLYDKSPGKKTTYTIPLSSAGGSA [r2_99_JUSTAS]
[1]
  folding stability dG unfold: 0.65 ± 0.12 kcal/mol
[2]
  folding stability dG unfold: 1.57 ± 0.22 kcal/mol
[3]
  folding stability dG unfold: 1.21 ± 0.21 kcal/mol

## SAGGSAGGSGPKPRLIKLTFLLEPGKVEEFAQALRDAGFEIVSVEVEPLPDGGERATVTVRIDSAGGSAGGS [r12_905_TrMRF]
[1]
  folding stability dG unfold: 2.81 ± 0.093 kcal/mol
[2]
  folding stability dG unfold: 3.82 ± 0.07 kcal/mol
[3]
  folding stability dG unfold: 3.56 ± 0.062 kcal/mol

## SAGGKIKIRNPKTGLIVEVLEYNPETGKFKVKVTFPDGSVEEKEFPGSLEDLIEWLESEGFPFEVEGSAGGS [r16_748_TrMRF]
[1]
  folding stability dG unfold: 2.26 ± 0.13 kcal/mol
[2]
  folding stability dG unfold: 3.72 ± 0.13 kcal/mol
[3]
  folding stability dG unfold: 3.37 ± 0.16 kcal/mol

## MNIKVTSVLPDGTVVVTAEAPLPDGSSIRVTAARRGKDSYVLVTVNVYPTKVVADIKEVAPVSPGSPEEGGS [r1_53_TrMRF]
[1]
  folding stability dG unfold: 2.21 ± 0.085 kcal/mol
[2]
  folding stability dG unfold: 3.3 ± 0.12 kcal/mol
[3]
  folding stability dG unfold: 2.88 ± 0.12 kcal/mol

## SAGGSAGGSAGPVVISIPETNTLVVLAPLPDDRVLADVFQFDPTTPEPTVFTVPAENISFSAGGSAGGSAGG [r11_285_TrMRF]
[1]
  folding stability dG unfold: 0.76 ± 0.024 kcal/mol
[2]
  folding stability dG unfold: 0.335 ± 0.13 kcal/mol
[3]
  folding stability dG unfold: 0.565 ± 0.099 kcal/mol

## SATETLTVVETRTVRDPAVPGTTTTETRVTEVTRPAPPPPPLSAEELARALAEAGLLERTDDGELKVVLSAG [r14_582_TrROS_Hall]
[1]
  folding stability dG unfold: -0.559 ± 0.25 kcal/mol
[2]
  folding stability dG unfold: -0.276 ± 0.11 kcal/mol
[3]
  folding stability dG unfold: -0.567 ± 0.43 kcal/mol

## SAGMKIRILILGKGDPAQVEALAKELEAKLKEELGTEDVEVETLPASLTEEAAEERAKEEKVDIVVYESAGG [r19_89_JUSTAS]
[1]
  folding stability dG unfold: 0.85 ± 0.045 kcal/mol
[2]
  folding stability dG unfold: 1.08 ± 0.13 kcal/mol
[3]
  folding stability dG unfold: 0.99 ± 0.09 kcal/mol

## SAGGSAGGMKVYEIEVPPSSGLTPEEIRARVREEIEASNNAPVEVTVEVDPNGRLTVTIKITPLSAGGSAGG [r6_819_JUSTAS]
[1]
  folding stability dG unfold: 1.83 ± 0.036 kcal/mol
[2]
  folding stability dG unfold: 1.28 ± 0.054 kcal/mol
[3]
  folding stability dG unfold: 1.49 ± 0.13 kcal/mol

## SMEIVFKGKNYYVPVKIDLDNPKITIETYPDKRNKVFKPLSKETAEKIAKAVEIEVAEKIAKAIAEGKPPSA [r9_368_TrMRF]
[1]
  folding stability dG unfold: 0.0537 ± 0.39 kcal/mol
[2]
  folding stability dG unfold: -0.5 ± 0.66 kcal/mol
[3]
  folding stability dG unfold: -0.246 ± 0.54 kcal/mol

## SAGPWNIMVYDNGEPLEMIEIKGDEITIPLPPGPVRIAIFNPDDNGFVEEEVTPEDGTIEMKIPKGAKISAG [r5_469_TrROS]
[1]
  folding stability dG unfold: -0.792 ± 0.44 kcal/mol
[2]
  folding stability dG unfold: 0.207 ± 0.33 kcal/mol
[3]
  folding stability dG unfold: -0.113 ± 0.38 kcal/mol

## SAGGSAGMSTVTVPLTVELVDPNNGNLKKVIERPLTVPAELSLDEVKEIVREEAKKEGLTIAKILLSAGGSA [r15_195_JUSTAS]
[1]
  folding stability dG unfold: -0.122 ± 0.21 kcal/mol
[2]
  folding stability dG unfold: -0.0556 ± 0.092 kcal/mol
[3]
  folding stability dG unfold: 0.00724 ± 0.13 kcal/mol
